Source: patent US20220049021A1

target: T1, human FLT3 on AML5 cells (human) (UniProt P36888); test: cell-based or functional assay
T1 sequence (looked up): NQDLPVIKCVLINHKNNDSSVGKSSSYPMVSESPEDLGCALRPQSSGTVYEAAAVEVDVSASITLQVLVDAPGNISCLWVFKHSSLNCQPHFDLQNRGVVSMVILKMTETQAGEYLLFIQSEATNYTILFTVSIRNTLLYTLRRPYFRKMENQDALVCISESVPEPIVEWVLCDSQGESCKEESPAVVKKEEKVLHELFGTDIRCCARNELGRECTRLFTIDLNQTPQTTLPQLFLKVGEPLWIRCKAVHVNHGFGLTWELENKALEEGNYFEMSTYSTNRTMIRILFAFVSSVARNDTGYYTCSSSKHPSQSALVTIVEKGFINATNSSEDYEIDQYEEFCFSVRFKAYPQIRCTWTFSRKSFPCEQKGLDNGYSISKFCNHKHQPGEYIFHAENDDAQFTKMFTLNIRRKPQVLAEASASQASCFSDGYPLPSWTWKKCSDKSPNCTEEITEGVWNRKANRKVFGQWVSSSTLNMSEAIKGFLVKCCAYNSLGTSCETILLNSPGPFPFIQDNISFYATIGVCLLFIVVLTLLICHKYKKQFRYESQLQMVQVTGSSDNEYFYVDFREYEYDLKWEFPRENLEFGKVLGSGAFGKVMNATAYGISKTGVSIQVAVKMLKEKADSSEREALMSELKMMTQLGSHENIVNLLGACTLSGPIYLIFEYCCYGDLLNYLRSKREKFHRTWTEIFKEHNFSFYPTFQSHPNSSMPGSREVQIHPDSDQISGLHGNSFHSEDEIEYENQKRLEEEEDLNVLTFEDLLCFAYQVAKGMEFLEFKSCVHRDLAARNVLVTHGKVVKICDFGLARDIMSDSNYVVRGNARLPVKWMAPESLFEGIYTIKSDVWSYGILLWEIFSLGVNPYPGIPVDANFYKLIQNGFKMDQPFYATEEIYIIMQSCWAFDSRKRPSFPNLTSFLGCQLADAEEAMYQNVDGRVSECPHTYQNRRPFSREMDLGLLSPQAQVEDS

Chain of human FLT3-ligand (H8Y) human hingeless IgG1 fusion protein (SEQ ID NO:22) (Fc fusion) (chain): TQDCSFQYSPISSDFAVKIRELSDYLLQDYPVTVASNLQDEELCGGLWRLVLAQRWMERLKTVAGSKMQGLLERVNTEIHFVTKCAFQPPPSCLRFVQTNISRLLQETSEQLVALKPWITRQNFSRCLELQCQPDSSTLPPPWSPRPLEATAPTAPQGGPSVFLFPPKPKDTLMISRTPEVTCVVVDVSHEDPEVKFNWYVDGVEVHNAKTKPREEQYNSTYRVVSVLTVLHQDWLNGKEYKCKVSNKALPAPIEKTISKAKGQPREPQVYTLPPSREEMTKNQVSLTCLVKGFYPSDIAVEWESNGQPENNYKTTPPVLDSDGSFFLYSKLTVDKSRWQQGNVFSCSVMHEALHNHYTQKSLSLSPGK
Chain of human FLT3-ligand human IgG1 fusion protein (SEQ ID NO:21) (Fc fusion) (chain): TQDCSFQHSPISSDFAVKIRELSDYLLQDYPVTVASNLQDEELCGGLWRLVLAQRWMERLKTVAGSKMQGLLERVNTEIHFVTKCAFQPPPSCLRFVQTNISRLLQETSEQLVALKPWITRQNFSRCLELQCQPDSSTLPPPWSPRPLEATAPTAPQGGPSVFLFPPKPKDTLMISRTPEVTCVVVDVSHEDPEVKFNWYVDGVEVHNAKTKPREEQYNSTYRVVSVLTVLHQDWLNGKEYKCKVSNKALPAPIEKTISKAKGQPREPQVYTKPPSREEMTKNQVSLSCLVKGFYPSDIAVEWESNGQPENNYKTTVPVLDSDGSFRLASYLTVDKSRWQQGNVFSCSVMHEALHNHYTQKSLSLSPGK

| EC50 (nM), Inducing Proliferation of AML5 Cells [nM] | potency in AML5 proliferation against SEQ ID NO:1 [fold] | Substance |
| --- | --- | --- |
| 0.014 | 2.5 | human FLT3-ligand (H8Y) human hingeless IgG1 fusion protein (SEQ ID NO:22) (Fc fusion) |
| 0.013 | 2.5 | human FLT3-ligand (H8Y+K84E) human hingeless IgG1 fusion protein (SEQ ID NO:24) (Fc fusion) |
| 0.013 | 2.5 | human FLT3-ligand (K84E) human hingeless IgG1 fusion protein (SEQ ID NO:23) (Fc fusion) |
| 0.035 | – | human FLT3-ligand human IgG1 fusion protein (SEQ ID NO:21) (Fc fusion) |
